We go through two molecules from article PMC8826056, “Different Functions of IbRAP2.4, a Drought-Responsive AP2/ERF Transcription Factor, in Regulating Root Development Between Arabidopsis and Sweetpotato”.

This series has as its target GST-IbRAP2.4 (Ipomoea batatas (Sushu 16), UniProt A0A3S6I5T9 1-294). The series is described as follows: EMSA; dose-dependent, 0.5-4 ug protein; unlabeled probe competes; 200 mM HEPES, 50 mM KCl, 5 mM DTT, 1 mM EDTA, 20 pmol poly dI-dC, 30 uL (so in the source), pH not stated; room temperature 30 min; 8% native PAGE. To be noted: protein: recombinant; tags: GST; label: 32P (T4 PNK, gamma-ATP); blunt (annealed oligonucleotide set). (In general: Mobility shift assays separate free from complexed probe on a gel.)

Sequence of GST-IbRAP2.4 (A0A3S6I5T9 entry or part of it): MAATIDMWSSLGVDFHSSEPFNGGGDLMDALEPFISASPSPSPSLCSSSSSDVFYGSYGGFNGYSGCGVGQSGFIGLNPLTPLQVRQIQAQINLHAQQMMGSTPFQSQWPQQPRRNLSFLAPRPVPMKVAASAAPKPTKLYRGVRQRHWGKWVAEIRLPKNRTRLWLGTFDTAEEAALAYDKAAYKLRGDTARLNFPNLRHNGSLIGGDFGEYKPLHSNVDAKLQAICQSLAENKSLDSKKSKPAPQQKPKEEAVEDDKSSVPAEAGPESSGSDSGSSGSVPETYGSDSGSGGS

B1: GCC-box probe (dsDNA)
DNA 1: TTCATAAGAGCCGCCACTCATAAGAGCCGCCACT
DNA 2: AGTGGCGGCTCTTATGAGTGGCGGCTCTTATGAA
For B1, the binding result is “binds”.

B2: DRE probe (dsDNA)
DNA 1: TTGATACTACCGACATGAGTTGATACTACCGACATGAGTT
DNA 2: AACTCATGTCGGTAGTATCAACTCATGTCGGTAGTATCAA
In the case of B2, the binding result was “binds”.
